Numbering of substitutions follows the chain as printed. In names and notes the source's numbering stands.
B1: N70S: mutated TriA variant of SEQ ID NO: 2 (protein)
chain: MQTLSIQHGTLVTMDQYRRVLGDSWVHVQDGRIVALGVHAESVPPPADRVIDARGKVVLPGFINAHTHVSQILLRGGPSHGRQLYDWLFNVLYPGQKAMRPEDVAVAVRLYCAEAVRSGITTINDNADSAIYPGNIEAAMAVYGEVGVRVVYARMFFDRMDGRIQGYVDALKARSPQVELCSIMEETAVAKDRITALSDQYHGTAGGRISVWPAPAITPAVTVEGMRWAQAFARDRAVMWTLHMAESDHDERLHWMSPAEYMECYGLLDERLQVAHCVYFDRKDVRLLHRHNVKVASQVVSNAYLGSGVAPVPEMVERGMAVGIGTDDGNCNDSVNMIGDMKFMAHIHRAVHRDADVLTPEKILEMATIDGARSLGMDHEIGSIETGKRADLILLDLRHPQTTPHHHLAATIVFQAYGNEVDTVLIDGNVVMENRRLSFLPPERELAFLEEAQSRATAILQRANMVANPAWRSL
modifications: Pseudomonas
B2: Q71S: mutated TriA variant of SEQ ID NO: 2 (protein)
chain: B1 chain with S70N, Q71S
modifications: Pseudomonas
B3: F157S: mutated TriA variant of SEQ ID NO: 2 (protein)
chain: B1 chain with S70N, F157S
modifications: Pseudomonas
B4: Q71NL92A: mutated TriA variant of SEQ ID NO: 2 (protein)
chain: B1 chain with S70N, Q71N, L92A
modifications: Pseudomonas
B5: Q71NL88AL92A: mutated TriA variant of SEQ ID NO: 2 (protein)
chain: B1 chain with S70N, Q71N, L88A, L92A
modifications: Pseudomonas
B6: Q71V: mutated TriA variant of SEQ ID NO: 2 (protein)
chain: B1 chain with S70N, Q71V
modifications: Pseudomonas
B7: Q71NL92AY93L: mutated TriA variant of SEQ ID NO: 2 (protein)
chain: B1 chain with S70N, Q71N, L92A, Y93L
modifications: Pseudomonas
B8: Q71NL92AY93F: mutated TriA variant of SEQ ID NO: 2 (protein)
chain: B1 chain with S70N, Q71N, L92A, Y93F
modifications: Pseudomonas
B9: Q71NL92AD128G: mutated TriA variant of SEQ ID NO: 2 (protein)
chain: B1 chain with S70N, Q71N, L92A, D128G
modifications: Pseudomonas
B10: Q71NL92AD128A: mutated TriA variant of SEQ ID NO: 2 (protein)
chain: B1 chain with S70N, Q71N, L92A, D128A
modifications: Pseudomonas
B11: Q71NL88AL92AY93L: mutated TriA variant of SEQ ID NO: 2 (protein)
chain: B1 chain with S70N, Q71N, L88A, L92A, Y93L
modifications: Pseudomonas
B12: Q71NL88AL92AY93F: mutated TriA variant of SEQ ID NO: 2 (protein)
chain: B1 chain with S70N, Q71N, L88A, L92A, Y93F
modifications: Pseudomonas
B13: Q71NL88AL92AY93LI217A: mutated TriA variant of SEQ ID NO: 2 (protein)
chain: B1 chain with S70N, Q71N, L88A, L92A, Y93L, I217A
modifications: Pseudomonas
B14: Q71NL88AL92AY93FF157L: mutated TriA variant of SEQ ID NO: 2 (protein)
chain: B1 chain with S70N, Q71N, L88A, L92A, Y93F, F157L
modifications: Pseudomonas
B15: Q71NL88AL92AD128A: mutated TriA variant of SEQ ID NO: 2 (protein)
chain: B1 chain with S70N, Q71N, L88A, L92A, D128A
modifications: Pseudomonas
B16: Q71NL88AL92AD128G: mutated TriA variant of SEQ ID NO: 2 (protein)
chain: B1 chain with S70N, Q71N, L88A, L92A, D128G
modifications: Pseudomonas
B17: Q71G: mutated TriA variant of SEQ ID NO: 2 (protein)
chain: B1 chain with S70N, Q71G
modifications: Pseudomonas
B18: Q71NL92AY93FD128A: mutated TriA variant of SEQ ID NO: 2 (protein)
chain: B1 chain with S70N, Q71N, L92A, Y93F, D128A
modifications: Pseudomonas
B19: Q71NL92AY93FD128G: mutated TriA variant of SEQ ID NO: 2 (protein)
chain: B1 chain with S70N, Q71N, L92A, Y93F, D128G
modifications: Pseudomonas
B20: Q71NL92AY93FD128GQ96T: mutated TriA variant of SEQ ID NO: 2 (protein)
chain: B1 chain with S70N, Q71N, L92A, Y93F, Q96T, D128G
modifications: Pseudomonas

Assay type: biochemical
Conditions: pH 7.2
Experimental: EXAMPLE 3: Protein Purification. TriA and variants thereof were produced in E. coli BL21(DE3) Gold (Agilent Technologies, Germany). Therefore E. coli was transformed with appropriate pET24d N-HIS tag expression vector and chaperone plasmid pGro7 (chaperones groEL and groES). Bacterial strains were grown at 30° C. in 100 mL LB for 20 h and protein expression induced with 0.1 mM IPTG at 25° C. for 20 hs. Cells were harvested by centrifugation at 3000 rpm at 4° C. for 20 min, resuspended in Bug Buster protein extraction reagent (Novagen, Germany) according to manufactures instructions. Lysates were clarified by centrifugation. Samples of bovine serum albumin ([…]) were loaded onto each gel analyzed by densitometry to provide an internal standard. Protein determinations were verified using Coomassie protein assay dye, according to manufactures instruction (Thermo Scientific; USA). The HIS-tagged enzymes were purified by metal ion affinity chromatography using Ni-IDA 1000 kit (Macherey-Nagel, Germany) following manufactures instructions. Protein purity was accessed by SDS-PAGE using NuPAGE Novex 4-12% Bis-Tris pre-cast gels (Life Technologies; USA) stained with Coomassie Brilliant Blue (Serva, Germany). Protein concentrations were estimated by measuring absorbance at 280 nm using Lambda Bio+(Perkin Elmer, USA). EXAMPLE 4: Enzyme kinetics. Resting cell suspension containing triA gene were incubated with various azines, melamine and atrazine and the culture filtrate was analyzed by UPLC-HR-MS. Substrates were obtained either from Sigma-Aldrich or synthesized internally. Synthetic standards and enzyme reaction products were analysed by UPLC-HR-MS (Thermo/Dionex UPLC UltiMate3000 coupled to a QExactive high resolution mass spectrometer). A Waters Acquity HSS T3 column (2.1 mm; 100 mm; […]) was used with a mobile phase water/acetonitrile (0.1% formic acid) with a flow rate of […]. Enzymes were used solved 25 mM sodium phosphate buffer (pH 7.2) with substrate concentration in the range of 1 nM to 10 nM at 30° C. Over time, the original azine peak disappeared whereas the formed OH-Metabolite (reaction product) increased. The product was identified by determination of the exact formula and by analysis of the accurate MS-MS fragments. Moreover for some of the formed products authentic standards were co-eluted. Degradation in % was calculated against the cells harboring the empty vector as control.

Molecule	Degradation in % of 6-cyclopentyl-N4-(2,3,4,5,6-pentafluorophenyl)-1,3,5-triazine-2,4-diamine	Degradation in % of Melamine
B1	0%	0%
B2	0%	43%
B3	0%	10%
B4	99%	87%
B5	64%	40%
B6	0%	0%
B7	100%	99%
B8	100%	78%
B9	61%	0%
B10	98%	0%
B11	99%	4%
B12	92%	5%
B13	99%	12%
B14	91%	1%
B15	4%	0%
B16	31%	0%
B17	0%	19%
B18	98%	0%
B19	74%	0%
B20	99%	1%

From patent US11499162B2, “Plants having increased tolerance to herbicides” (BASF SE, priority 2016, dated 2022)
